Data set [1] deals with T1, RIG-I K861A (Homo sapiens) (UniProt O95786).
T1 sequence: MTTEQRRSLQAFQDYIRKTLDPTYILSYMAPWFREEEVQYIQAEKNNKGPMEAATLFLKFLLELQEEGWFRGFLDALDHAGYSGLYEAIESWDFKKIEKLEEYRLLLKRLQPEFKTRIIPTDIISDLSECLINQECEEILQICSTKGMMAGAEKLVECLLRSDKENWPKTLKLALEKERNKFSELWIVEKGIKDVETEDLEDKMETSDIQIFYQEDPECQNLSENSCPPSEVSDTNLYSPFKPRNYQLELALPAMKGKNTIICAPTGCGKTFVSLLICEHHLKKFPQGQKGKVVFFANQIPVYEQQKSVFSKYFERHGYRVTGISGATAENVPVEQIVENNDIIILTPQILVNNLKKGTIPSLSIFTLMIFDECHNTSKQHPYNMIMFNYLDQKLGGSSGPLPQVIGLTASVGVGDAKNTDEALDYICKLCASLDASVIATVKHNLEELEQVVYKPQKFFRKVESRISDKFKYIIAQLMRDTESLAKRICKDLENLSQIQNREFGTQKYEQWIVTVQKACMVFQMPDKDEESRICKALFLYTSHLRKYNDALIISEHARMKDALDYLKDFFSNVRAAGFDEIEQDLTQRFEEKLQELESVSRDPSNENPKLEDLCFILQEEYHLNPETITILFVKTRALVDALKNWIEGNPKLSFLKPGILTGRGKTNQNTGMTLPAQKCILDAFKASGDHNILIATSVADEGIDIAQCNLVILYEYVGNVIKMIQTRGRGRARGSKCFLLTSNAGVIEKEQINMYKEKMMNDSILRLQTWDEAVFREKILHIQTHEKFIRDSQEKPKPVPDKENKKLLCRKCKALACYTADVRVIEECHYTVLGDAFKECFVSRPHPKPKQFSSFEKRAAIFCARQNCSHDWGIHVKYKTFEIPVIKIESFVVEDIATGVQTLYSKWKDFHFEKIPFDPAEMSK
Nature of the data set: filter. The following applies: J = PPdU at every J; SB18T0.01 + 1 mM DTT, 37 C.

For data set [2], the target named is T2, RIG-I helicase domain (aa 229-793) (Homo sapiens) (UniProt O95786).
T2 sequence: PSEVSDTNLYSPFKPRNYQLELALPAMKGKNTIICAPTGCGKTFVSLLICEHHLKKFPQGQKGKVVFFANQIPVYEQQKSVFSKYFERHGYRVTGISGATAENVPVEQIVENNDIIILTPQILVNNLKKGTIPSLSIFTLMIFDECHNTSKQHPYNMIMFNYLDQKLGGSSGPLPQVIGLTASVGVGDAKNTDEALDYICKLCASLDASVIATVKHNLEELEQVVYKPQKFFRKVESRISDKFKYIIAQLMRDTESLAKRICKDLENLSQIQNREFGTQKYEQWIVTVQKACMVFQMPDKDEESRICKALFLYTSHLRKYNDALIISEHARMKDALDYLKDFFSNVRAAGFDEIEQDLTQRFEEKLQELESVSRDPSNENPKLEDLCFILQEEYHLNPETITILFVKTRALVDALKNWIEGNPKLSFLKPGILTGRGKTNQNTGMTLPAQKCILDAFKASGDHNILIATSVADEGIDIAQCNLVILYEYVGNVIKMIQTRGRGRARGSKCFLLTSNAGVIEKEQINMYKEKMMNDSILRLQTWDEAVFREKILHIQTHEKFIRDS
The experiment in a line: filter. The following applies: J = PPdU at every J; SB18T0.01 + 1 mM DTT, 37 C.

Turning to “ATCTCTGTGTCATGTGTTTTAATGTCAGTTTAATGATGAGG [14832-55_8]”, the equilibrium dissociation constant (Kd) (commonly the constant that tells how readily two partners part at equilibrium) in data set [1] worked out at 0.89 nM; in data set [2] it was 10 nM.

Values taken from US20220333113.
